Biological target: complement C5 (full length) (Homo sapiens) (UniProt P01031)
Test: filter
Settings: dRmY: A,G deoxy; C,U 2'-OMe; dot blot, DPBS

complement C5 (full length) (Homo sapiens), sequence (P01031 whole entry): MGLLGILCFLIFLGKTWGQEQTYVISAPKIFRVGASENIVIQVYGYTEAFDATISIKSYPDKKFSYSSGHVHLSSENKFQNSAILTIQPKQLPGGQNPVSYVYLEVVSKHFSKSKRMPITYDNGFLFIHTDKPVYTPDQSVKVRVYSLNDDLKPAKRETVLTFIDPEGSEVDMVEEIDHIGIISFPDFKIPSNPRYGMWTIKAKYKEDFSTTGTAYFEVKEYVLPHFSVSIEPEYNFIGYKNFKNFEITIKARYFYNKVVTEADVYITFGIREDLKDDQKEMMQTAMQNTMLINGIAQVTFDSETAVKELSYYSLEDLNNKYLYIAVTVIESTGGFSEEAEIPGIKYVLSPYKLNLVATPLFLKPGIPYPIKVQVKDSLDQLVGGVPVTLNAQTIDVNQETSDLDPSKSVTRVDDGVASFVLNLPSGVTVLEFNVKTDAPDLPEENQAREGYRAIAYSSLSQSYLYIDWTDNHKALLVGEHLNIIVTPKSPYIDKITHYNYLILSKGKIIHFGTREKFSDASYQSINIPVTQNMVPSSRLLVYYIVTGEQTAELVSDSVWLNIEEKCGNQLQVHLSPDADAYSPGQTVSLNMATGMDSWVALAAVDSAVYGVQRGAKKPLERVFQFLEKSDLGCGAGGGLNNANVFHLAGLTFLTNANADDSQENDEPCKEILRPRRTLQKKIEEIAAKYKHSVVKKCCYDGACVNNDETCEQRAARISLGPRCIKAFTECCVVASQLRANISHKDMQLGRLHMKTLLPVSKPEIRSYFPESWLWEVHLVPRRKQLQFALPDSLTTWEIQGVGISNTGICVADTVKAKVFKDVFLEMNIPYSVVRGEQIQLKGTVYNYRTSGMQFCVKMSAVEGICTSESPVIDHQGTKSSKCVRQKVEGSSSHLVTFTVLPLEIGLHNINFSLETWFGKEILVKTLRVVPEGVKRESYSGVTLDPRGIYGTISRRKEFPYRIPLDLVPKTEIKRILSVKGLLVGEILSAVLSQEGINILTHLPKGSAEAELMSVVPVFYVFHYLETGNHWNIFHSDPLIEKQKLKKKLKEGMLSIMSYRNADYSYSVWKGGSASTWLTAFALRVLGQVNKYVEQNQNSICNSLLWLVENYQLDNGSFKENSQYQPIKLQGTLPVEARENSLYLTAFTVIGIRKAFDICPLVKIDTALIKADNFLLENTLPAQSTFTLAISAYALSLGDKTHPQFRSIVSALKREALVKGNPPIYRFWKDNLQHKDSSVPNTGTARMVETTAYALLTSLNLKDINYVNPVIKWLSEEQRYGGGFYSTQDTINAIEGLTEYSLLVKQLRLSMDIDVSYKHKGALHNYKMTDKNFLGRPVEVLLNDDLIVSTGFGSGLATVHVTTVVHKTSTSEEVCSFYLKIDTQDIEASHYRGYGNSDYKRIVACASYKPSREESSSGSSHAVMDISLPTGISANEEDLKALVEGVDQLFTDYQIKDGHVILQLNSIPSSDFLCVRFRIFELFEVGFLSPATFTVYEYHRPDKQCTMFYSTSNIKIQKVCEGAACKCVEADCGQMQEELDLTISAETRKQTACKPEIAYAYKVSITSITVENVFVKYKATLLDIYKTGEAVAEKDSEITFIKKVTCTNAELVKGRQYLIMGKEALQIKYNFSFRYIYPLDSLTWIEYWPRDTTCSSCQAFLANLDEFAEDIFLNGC

GGGAGAGGAGAGAACGUUCUACCUUGGUUUGGCNCAGGCAUANAUACGCACGGGUCGAUCGGUUACGACUAGCAU [doped clone SEQ 96]
Kd: 84 nM
